Experimental findings from paper PMC7491322, “Molecular basis for the distinct cellular functions of the Lsm1–7 and Lsm2–8 complexes” are described below.

In data set [1] the target is T1, Lsm2-8 (Schizosaccharomyces pombe, UniProt O94408;Q9Y7M4;O14352;O42978;Q9UUI1;O74499;O74483 …). Put plainly: fluorescence polarization; FP: 100 mM NaCl, 20 mM Tris pH 8.2 (final ~8), 10 mM MgCl2, 1 mM TCEP, 1 mM Na azide, 0.1 mg/mL each tRNA, BSA and heparin; temperature not stated; 1 nM RNA final; Hill fixed at 1. The note with it: protein: recombinant; tags: Lsm4 C-term strep-II; Lsm7 C-term His6; GST (Lsm3) and MBP (Lsm6) with TEV sites, TEV treated; copies: 1;1;1;1;1;1;1; label: 5'-FAM; single-stranded.

In data set [2] the target is T2, Lsm1-7 (Schizosaccharomyces pombe, UniProt P87173;O94408;Q9Y7M4;O14352;O42978;Q9UUI1;O74499 …). The data set is described as above. The settings on record: protein: recombinant, tags: Lsm4 C-term strep-II (as for Lsm2-8), Lsm7 untagged, GST (Lsm3) and MBP (Lsm6) with TEV sites, TEV treated, copies: 1;1;1;1;1;1;1, label: 5'-FAM.
The target of data set [3] is T3, Lsm1Δ56C-7 (Schizosaccharomyces pombe, UniProt P87173;O94408;Q9Y7M4;O14352;O42978;Q9UUI1;O74499 …). The data set is described as above. The note with it: protein: recombinant, tags: as P2, copies: 1;1;1;1;1;1;1, label: 5'-FAM.
The target in data set [4] is T1, Lsm2-8. The data set is described as follows: X-ray crystallography; 2.3 Å; FP: 100 mM NaCl, 20 mM Tris pH 8.2 (final ~8), 10 mM MgCl2, 1 mM TCEP, 1 mM Na azide, 0.1 mg/mL each tRNA, BSA and heparin; temperature not stated; 1 nM RNA final; Hill fixed at 1. The settings on record: protein: recombinant; tags: Lsm4 C-term strep-II; Lsm7 C-term His6; GST (Lsm3) and MBP (Lsm6) with TEV sites, TEV treated; copies: 1;1;1;1;1;1;1; single-stranded.

Data set [5] addresses T2, Lsm1-7. Put plainly: fluorescence polarization; FP: 100 mM NaCl, 20 mM Tris pH 8.2 (final ~8), 10 mM MgCl2, 1 mM TCEP, 1 mM Na azide, 0.1 mg/mL each tRNA, BSA and heparin; temperature not stated; 1 nM RNA final; Hill fixed at 1. The note with it: protein: recombinant; tags: Lsm4 C-term strep-II (as for Lsm2-8); Lsm7 untagged; GST (Lsm3) and MBP (Lsm6) with TEV sites, TEV treated; copies: 1;1;1;1;1;1;1; label: 5'-FAM; single-stranded.

A further data set addresses Lsm1-7 (Lsm5 N66A/N68A) (Schizosaccharomyces pombe, UniProt P87173;O94408;Q9Y7M4;O14352;O42978;Q9UUI1;O74499 …, N66A;N68A;Lsm5). The description is as above. The note with it: protein: recombinant; tags: as P2; copies: 1;1;1;1;1;1;1; label: 5'-FAM; single-stranded.
The target of data set [6] is T3, Lsm1Δ56C-7. Put plainly: X-ray crystallography; 1.8 Å; FP: 100 mM NaCl, 20 mM Tris pH 8.2 (final ~8), 10 mM MgCl2, 1 mM TCEP, 1 mM Na azide, 0.1 mg/mL each tRNA, BSA and heparin; temperature not stated; 1 nM RNA final; Hill fixed at 1. The note with it: protein: recombinant; tags: as P2; copies: 1;1;1;1;1;1;1; single-stranded.
Data set [7] addresses T1, Lsm2-8. The data set is described as follows: X-ray crystallography; 1.9 Å; FP: 100 mM NaCl, 20 mM Tris pH 8.2 (final ~8), 10 mM MgCl2, 1 mM TCEP, 1 mM Na azide, 0.1 mg/mL each tRNA, BSA and heparin; temperature not stated; 1 nM RNA final; Hill fixed at 1. The note with it: protein: recombinant; tags: Lsm4 C-term strep-II; Lsm7 C-term His6; GST (Lsm3) and MBP (Lsm6) with TEV sites, TEV treated; copies: 1;1;1;1;1;1;1; single-stranded.

Data set [8] addresses T3, Lsm1Δ56C-7. The data set is described as follows: X-ray crystallography; 2.1 Å; FP: 100 mM NaCl, 20 mM Tris pH 8.2 (final ~8), 10 mM MgCl2, 1 mM TCEP, 1 mM Na azide, 0.1 mg/mL each tRNA, BSA and heparin; temperature not stated; 1 nM RNA final; Hill fixed at 1. The settings on record: protein: recombinant; tags: as P2; copies: 1;1;1;1;1;1;1; single-stranded.
Setting [9] is: 5' hairpin, single-stranded 3' end.

Usually Kd stands for the equilibrium constant for the complex coming apart. Consider ACCCAUUUUU (ssRNA, 3' phosphate) [U6 3' tail, 3' phosphate], for which the Kd with Lsm2-8 [1] came out at 152 nM. With UUUUUUUUUUUUUAA (ssRNA) [U13AA], the binding result with Lsm1-7 [2] (single-stranded) is “binds”. Take GGCACUUCGGUGCCCCCCAUUUUA (structured_RNA) [5' stem-loop RNA with UUUUA site]: the Kd with Lsm1-7 [2] (setting [9]) stood at 70 nM; with Lsm1Δ56C-7 [3] (setting [9]), 32 nM. For the molecule CCCCCUUUUUA (ssRNA), the results for the Kd with Lsm1-7 [2] (single-stranded) and in the data set with Lsm1Δ56C-7 [3] (single-stranded) were 29.7 nM and 13 nM, respectively. For the molecule UUUUU (ssRNA, 2',3' cyclic phosphate) [UUUUU>p], the binding result with Lsm2-8 [4] was “binds”.

For ACCCAUUUUU (ssRNA, 2',3' cyclic phosphate) [U6 3' tail, 2',3' cyclic phosphate], the Kd with Lsm2-8 [1] was 26 nM.

ACCCAUUUUUA (ssRNA) [3' monoadenylated oligoU RNA]: the binding result with Lsm2-8 [1] is “binds”. As for ACCCAUUUUU (ssRNA, 2',3' cyclic phosphate) [cyclic phosphate oligoU RNA (Lsm1-7 assays)], the binding signal with Lsm1-7 [5] was approximately 14 fold weaker than N4; with Lsm1-7 (Lsm5 N66A/N68A) it was ~7 fold weaker than adenosine-terminated RNA.

For UUUUUA (ssRNA), in the data set with Lsm1Δ56C-7 [6], the binding result is reported as “binds”. UUUUU (ssRNA) [UUUUU-3'-OH]: the binding result with Lsm2-8 [7] is “binds”. As to AUUUUG (ssRNA), the binding result in the data set with Lsm1Δ56C-7 [8] is listed as “binds”.

Take UUUUUUUUUUUUUUU (ssRNA) [U15]: the binding result in the data set with Lsm1-7 [2] (single-stranded) is recorded as “binds”. As for UUUUUUUUUUUUUUA (ssRNA) [U14A], in the data set with Lsm1-7 [2] (single-stranded), the binding result was “binds”. As for ACCCAUUUUU (ssRNA) [U6 3' tail, 3'-OH], the Kd with Lsm2-8 [1] is 100 nM. In the case of AAAAAAAAAAAAAAA (ssRNA) [A15], the binding result with Lsm1Δ56C-7 [3] (single-stranded) was “no binding”. On to UUUUUACCCCC (ssRNA), for which the Kd with Lsm1-7 [2] (single-stranded) amounted to 189 nM; with Lsm1Δ56C-7 [3] (single-stranded) it was 34 nM.
